Test results as given in patent US20170360770A1.

How the values were obtained:
[1] = molecular target: human leukocyte antigen-DR (HLA-DR), on human cancer cell lines (human); experiment: cell-based ELISA on HLA-DR positive human melanoma cell line (printed A-374)
[2] = molecular target: human leukocyte antigen-DR (HLA-DR), on human cancer cell lines (human); experiment: cell-based or functional assay
[3] = molecular target: human leukocyte antigen-DR (HLA-DR), on human cancer cell lines (human); experiment: FACS, AlexaFluor-647-labeled IMMU-114 on CAG MM cells
[4] = molecular target: human leukocyte antigen-DR (HLA-DR), on human cancer cell lines (human); experiment: chemiluminescent cell-binding assay on SK-MEL-5 human melanoma cells
[5] = molecular target: human leukocyte antigen-DR (HLA-DR), on human cancer cell lines (human); experiment: chemiluminescent cell-binding assay on SK-MEL-28 human melanoma cells
[6] = molecular target: human leukocyte antigen-DR (HLA-DR), on human cancer cell lines (human); experiment: FACS, AlexaFluor-647-labeled IMMU-114 on MOLM-14 AML cells
[7] = molecular target: human leukocyte antigen-DR (HLA-DR), on human cancer cell lines (human); experiment: chemiluminescent cell-binding assay (LUMIGLO), 2 µg/mL antibody on A-375 cells; reference: humanized anti-CD22 control antibody
[8] = molecular target: human leukocyte antigen-DR (HLA-DR), on human cancer cell lines (human); experiment: FACS, AlexaFluor-647-labeled IMMU-114 on JVM-3 CLL cells
[9] = molecular target: human leukocyte antigen-DR (HLA-DR), on human cancer cell lines (human); experiment: chemiluminescent cell-binding assay on SK-MEL-2 human melanoma cells
[10] = molecular target: human leukocyte antigen-DR (HLA-DR), on human cancer cell lines (human); experiment: chemiluminescent cell-binding assay on A-375 human melanoma cells
[11] = molecular target: human leukocyte antigen-DR (HLA-DR), on human cancer cell lines (human); experiment: chemiluminescent cell-binding assay (LUMIGLO), 2 µg/mL antibody on A-375 human melanoma cells, at both 4° C. and RT
[12] = molecular target: human leukocyte antigen-DR (HLA-DR), on human cancer cell lines (human); experiment: FACS, AlexaFluor-647-labeled IMMU-114 on MN-60 ALL cells

IMMU-140 (hL243-CL2A-SN-38), anti-HLA-DR antibody drug conjugate
Kd [1]: 0.77 nM | IC50 (nM), in vitro cytotoxicity, CAG (MM) cells, MTS 96 h (nM (SN-38 equivalents)) [2]: 7.05 | IC50 (nM), in vitro cytotoxicity, JVM-3 (CLL) cells, MTS 96 h (nM (SN-38 equivalents)) [2]: 0.77 | IC50 (nM), in vitro cytotoxicity, MN-60 (ALL) cells, MTS 96 h (nM (SN-38 equivalents)) [2]: 1.29 | IC50 (nM), in vitro cytotoxicity, MOLM-14 (AML) cells, MTS 96 h (nM (SN-38 equivalents)) [2]: 1.21

B1: IMMU-114 (hL243), humanized anti-HLA-DR IgG4 monoclonal antibody (antibody, from a related filing, V domains shown)
VH: QVQLQQSGSELKKPGASVKVSCKASGFTFTNYGMNWVKQAPGQGLKWMGWINTYTREPTYADDFKGRFAFSLDTSVSTAYLQISSLKADDTAVYFCARDITAVVPTGFDYWGQGSLVTVSS
VL: DIQLTQSPSSLSASVGDRVTITCRASENIYSNLAWYRQKPGKAPKLLVFAASNLADGVPSRFSGSGSGTDYTFTISSLQPEDIATYYCQHFWTTPWAFGGGTKLQIKR
Mean fluorescence intensity (MFI) [3]: 80700 MFI | fold above background [4]: 12 fold | fold above background [5]: 25 fold | Kd [1]: 0.65 nM | Mean fluorescence intensity (MFI) [6]: 5750 MFI | fold mean luminescence over non-specific control [7]: > 25 fold | Mean fluorescence intensity (MFI) [8]: 78700 MFI | fold above background [9]: 2 fold | fold above background [10]: 48 fold | IC50 (nM), in vitro cytotoxicity, CAG (MM) cells, MTS 96 h [2]: > 40 nM | IC50 (nM), in vitro cytotoxicity, JVM-3 (CLL) cells, MTS 96 h [2]: 1.52 nM | IC50 (nM), in vitro cytotoxicity, MN-60 (ALL) cells, MTS 96 h [2]: > 40 nM | IC50 (nM), in vitro cytotoxicity, MOLM-14 (AML) cells, MTS 96 h [2]: > 40 nM | Maximum % Inhibition at 40 nM, CAG (MM) cells [2]: 28% | Maximum % Inhibition at 40 nM, JVM-3 (CLL) cells [2]: 65% | Maximum % Inhibition at 40 nM, MN-60 (ALL) cells [2]: 37% | Maximum % Inhibition at 40 nM, MOLM-14 (AML) cells [2]: 11% | fold mean luminescence over background [11]: > 48 fold | Mean fluorescence intensity (MFI) [12]: 65800 MFI
